Molecular target: pre-translocation ribosomal complex (without L27-tRNA labeling) (UniProt P0AG67)
Test: co-sedimentation

| Substance | ratio of co-sedimented EF-G to ribosomal S1 protein |
| --- | --- |
| T48V mutant of M5 EF-G (enzyme) | 1 EF-G per S1 |
| M5, the F410C-Y533C variant of a cysteineless E. coli EF-G (enzyme) | 0.15 EF-G per S1 |
| T48E mutant of M5 EF-G (enzyme) | 0.22 EF-G per S1 |

Reference: paper PMC10849647
